The values below come from publication PMC3046049 (Science (New York, N.Y.), 2010).

The labels stand for the following.
B2: Gαq (natural protein)
chain: RRELKLLLLGTGESGKSTFIKQMRIIHGSGYSDEDKRGFTKLVYQNIFTAMQAMIRAMDTLKIPYKYEHNKAHAQLVREVDVEKVSAFENPYVDAIKSLWNDPGIQECYDRRREYQLSDSTKYYLNDLDRVADPSYLPTQQDVLRVRVPTTGIIEYPFDLQSVIFRMVDVGGQRSERRKWIHCFENVTSIMFLVALSEYDQVLVESDNENRMEESKALFRTIITYPWFQNSSVILFLNKKDLLEEKIMYSHLVDYFPEYDGPQRDAQAAREFILKMFVDLNPDSDKIIYSHFTCATDTENIRFVFAAVKDTILQLNLKEYNLV

Assay [1] concerns the target B2.
Assay [2] has as its target T1, PLC-β3 truncated at residue 886 (UniProt Q01970 1-886).
T1 sequence (looked up): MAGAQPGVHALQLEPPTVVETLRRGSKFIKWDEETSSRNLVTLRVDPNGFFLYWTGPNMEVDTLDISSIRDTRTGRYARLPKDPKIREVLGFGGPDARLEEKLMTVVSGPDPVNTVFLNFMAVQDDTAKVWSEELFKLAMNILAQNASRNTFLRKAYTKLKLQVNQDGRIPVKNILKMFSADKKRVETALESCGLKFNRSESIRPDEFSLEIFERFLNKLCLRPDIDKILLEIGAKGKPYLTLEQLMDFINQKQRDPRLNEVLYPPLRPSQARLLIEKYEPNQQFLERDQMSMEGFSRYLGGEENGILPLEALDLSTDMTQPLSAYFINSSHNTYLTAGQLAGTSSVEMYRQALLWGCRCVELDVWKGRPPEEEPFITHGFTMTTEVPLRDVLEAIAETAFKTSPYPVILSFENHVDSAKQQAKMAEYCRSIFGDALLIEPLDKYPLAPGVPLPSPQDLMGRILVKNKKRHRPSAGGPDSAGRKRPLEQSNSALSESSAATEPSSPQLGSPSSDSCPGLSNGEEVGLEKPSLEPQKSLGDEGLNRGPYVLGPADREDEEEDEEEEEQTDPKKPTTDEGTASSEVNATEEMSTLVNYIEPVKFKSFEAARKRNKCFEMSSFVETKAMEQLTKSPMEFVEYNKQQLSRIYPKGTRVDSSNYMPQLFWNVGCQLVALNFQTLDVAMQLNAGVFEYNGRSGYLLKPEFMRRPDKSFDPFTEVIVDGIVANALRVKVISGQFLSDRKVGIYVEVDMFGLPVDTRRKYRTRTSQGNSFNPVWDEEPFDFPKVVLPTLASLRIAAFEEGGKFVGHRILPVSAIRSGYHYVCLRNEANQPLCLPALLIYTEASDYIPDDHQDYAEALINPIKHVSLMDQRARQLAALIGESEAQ

B1: PLC-β3(L859A) (enzyme, UniProt Q01970 1-1234, looked up)
chain: MAGAQPGVHALQLEPPTVVETLRRGSKFIKWDEETSSRNLVTLRVDPNGFFLYWTGPNMEVDTLDISSIRDTRTGRYARLPKDPKIREVLGFGGPDARLEEKLMTVVSGPDPVNTVFLNFMAVQDDTAKVWSEELFKLAMNILAQNASRNTFLRKAYTKLKLQVNQDGRIPVKNILKMFSADKKRVETALESCGLKFNRSESIRPDEFSLEIFERFLNKLCLRPDIDKILLEIGAKGKPYLTLEQLMDFINQKQRDPRLNEVLYPPLRPSQARLLIEKYEPNQQFLERDQMSMEGFSRYLGGEENGILPLEALDLSTDMTQPLSAYFINSSHNTYLTAGQLAGTSSVEMYRQALLWGCRCVELDVWKGRPPEEEPFITHGFTMTTEVPLRDVLEAIAETAFKTSPYPVILSFENHVDSAKQQAKMAEYCRSIFGDALLIEPLDKYPLAPGVPLPSPQDLMGRILVKNKKRHRPSAGGPDSAGRKRPLEQSNSALSESSAATEPSSPQLGSPSSDSCPGLSNGEEVGLEKPSLEPQKSLGDEGLNRGPYVLGPADREDEEEDEEEEEQTDPKKPTTDEGTASSEVNATEEMSTLVNYIEPVKFKSFEAARKRNKCFEMSSFVETKAMEQLTKSPMEFVEYNKQQLSRIYPKGTRVDSSNYMPQLFWNVGCQLVALNFQTLDVAMQLNAGVFEYNGRSGYLLKPEFMRRPDKSFDPFTEVIVDGIVANALRVKVISGQFLSDRKVGIYVEVDMFGLPVDTRRKYRTRTSQGNSFNPVWDEEPFDFPKVVLPTLASLRIAAFEEGGKFVGHRILPVSAIRSGYHYVCLRNEANQPLCLPALLIYTEASDYIPDDHQDYAEAAINPIKHVSLMDQRARQLAALIGESEAQAGQETCQDTQSQQLGSQPSSNPTPSPLDASPRRPPGPTTSPASTSLSSPGQRDDLIASILSEVAPTPLDELRGHKALVKLRSRQERDLRELRKKHQRKAVTLTRRLLDGLAQAQAEGRCRLRPGALGGAADVEDTKEGEDEAKRYQEFQNRQVQSLLELREAQVDAEAQRRLEHLRQALQRLREVVLDANTTQFKRLKEMNEREKKELQKILDRKRHNSISEAKMRDKHKKEAELTEINRRHITESVNSIRRLEEAQKQRHDRLVAGQQQVLQQLAEEEPKLLAQLAQECQEQRARLPQEIRRSLLGEMPEGLGDGPLVACASNGHAPGSSGHLSGADSESQEENTQL
Consider B1, for which the “fold lower binding affinity than PLC-β3” value in assay [1] came out at 7 fold. As to B2, the Kd in assay [2] was around 200 nM.
